According to patent US8217137B2, “Fullerene-based amino acids” (William Marsh Rice University, priority 2004, dated 2012):
Square brackets hold non-standard residues; d marks the D form. Ends that are not written are not given here. BAA = bucky amino acid

System: Rat maxillary incisor pulp cells (RPC-C2A)
Assay: Cell viability assay (Live-Dead Assay Kit), cytotoxicity of fullerene peptide
Format: cell-based
Conditions: 4, 40 and 400 μM peptide solutions in PBS, 100 μL mixed with 1.9 mL medium, 48 hrs incubation, Calcein AM / EthD-1
Protocol: Rat maxillary incisor pulp cells (RPC-C2A) were seeded on a 24-well tissue culture plate at 3540 cells per well and incubated for 24 hr at 37° C. in a 5% CO2 environment. Dulbecco's Modified Eagle's Medium (DMEM; Invitrogen, NY) was prepared with 10% fetal bovine serum (FBS; BioWhitaker, Walkersville, Md.), 2 mM Amphothericin B, 1 unit/ml penicillin, and 100 mg/l streptomycin (Invitrogen, NY). Three different concentrations of Fullerene peptide solutions (4, 40, and 400 μM) were prepared in PBS and sterilized using 0.2 μm filter syringe. 100 μL of the solution was mixed with 1.9 mL of medium and added to cells. Control was also prepared by adding PBS buffer solution without peptide-modified fullerene to cells. After 48 hrs of incubation, cell viability was determined using Live-Dead Assay Kit (Molecular Probes, Inc., Eugene, Oreg.). Calcein AM is converted to a green fluorescent product within live cells due to enzymatic activity, while ethidium homodimer-1, a red fluorescent compound, accumulates in dead cells due to increased membrane permeability. After removing medium, cells were rinsed with PBS solution twice. Cells in each well was incubated with 0.4 mL of 4 μM EthD-1 and 2 μM of Calcein AM in PBS for 30 min and observed under fluorescent microscope.
For the statistical analysis, the data were compared with two-tailed, unpaired t-tests. […]

BAA-Glu-Glu-Glu-Glu-Gly-Gly-Gly-Ser-COOH ([BAA]EEEEGGGS-OH) [fullerene-based peptide, peptide with a bucky amino acid (BAA) at the N-terminus]
toxicity to the cells (cell viability): no toxicity
